± gives the uncertainty stated by the source.
Assay: self-splicing fitness, log relative to wild type (ln ratio); higher = more splicing; Tetrahymena group I intron in knt gene, E. coli kanamycin selection, DiMSum; sequences stand for … in CUCUCU…GGAGGGAAAAGUUAUCAGGCAUGCACCUGGUAGCUAGUCUUUAAACCAAUAGAUUGCAUCGGUUUAAAAGGCAAGACCGUCAAAUUGCGGGAAAGGGGUCAACAGCCGUUCAGUACCAAGUCUCAGGGGAAACUUUGAGAUGGCCUUGCAAAGGGUAUGGUAAUAAGCUGACGGACAUGGUCCUAACCACGCAGCCAAGUCCUAAGUCAACAGAUCUUCUGUUGAUAUGGAUGCAGUUCACAGACUAAAUGUCGGUCGGGGAAGAUGUAUUCUUCUCAUAAGAUAUAGUCGGACCUCUCCUUAAUGGGAGCUAGCGGAUGAAGUGAUGCAACACUGGAGCCGCUGGGAACUAAUUUGUAUGCGAAAGUAUAUUGAUUAGUUUUGGAGUACUCGUGGUCG
Outline: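 A randomised library covering all eight P1ex-region intron nucleotides was built with the intron in the knt kanamycin-resistance gene on pET-22b(+) and held in E. coli BL21(DE3). Cells were grown overnight at 37°C or 30°C on LB agar, with or without 25 μg/mL kanamycin, plus 100 μg/mL carbenicillin, 50 μM IPTG and 0.2% rhamnose, and pooled colonies were amplicon-sequenced on an Illumina HiSeq 2500. DiMSum fitness is the error-weighted combination of wild-type-normalised replicate fold changes, kanamycin versus none.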

Sequence | self-splicing fitness (ln) (30 °C) | self-splicing fitness (ln) (37 °C)
CUCUAGCAAUAUUACGAAAU | -3.13 ± 0.21 | -3.18 ± 0.27
CUCUAGCAAUAUUACGACAU | -3.866 ± 0.033 | -3.6 ± 0.044
CUCUAGCAAUAUUACGCAAC | -3.63 ± 0.2 | -3.59 ± 0.28
CUCUAGCAAUAUUACGCACU | -2.77 ± 0.31 | -3.07 ± 0.25
CUCUAGCAAUAUUACGCCAG | -2.53 ± 0.32 | 
CUCUAGCAAUAUUACGCCUC | -1.49 ± 0.3 | 
CUCUAGCAAUAUUACGCGAA | -2.68 ± 0.24 | -3.56 ± 0.28
CUCUAGCAAUAUUACGGAGA | -1.93 ± 0.47 | -0.951 ± 0.27
CUCUAGCAAUAUUACGGAGG | -2.14 ± 0.2 | -1.32 ± 0.21
CUCUAGCAAUAUUACGGUAC | -2.88 ± 0.39 | -4.12 ± 0.46
CUCUAGCAAUAUUACGGUAG | -4.49 ± 0.33 | -1.79 ± 0.23
CUCUAGCAAUAUUACGGUGU | -3 ± 0.19 | -2.63 ± 0.3
CUCUAGCAAUAUUACGGUUG | -1.83 ± 0.12 | -0.869 ± 0.14
CUCUAGCAAUAUUACGUAAA | -3.71 ± 0.35 | -0.971 ± 0.17
CUCUAGCAAUAUUACGUCAC | -2.66 ± 0.19 | 
CUCUAGCAAUAUUACGUGGG | -4.79 ± 0.29 | -2.73 ± 0.18
CUCUAGCAAUAUUACGUUAG | -3.81 ± 0.24 | -2.13 ± 0.22
CUCUAGCAAUAUUACGUUUU | -4.1 ± 0.22 | -3.15 ± 0.16
CUGAAGCAAUAUUACGAAAA | -4.17 ± 0.25 | -2.59 ± 0.22
CUGAAGCAAUAUUACGAGGA | -3.46 ± 0.17 | -1.95 ± 0.2
CUGAAGCAAUAUUACGCAAA | -4.27 ± 0.42 | 

Sequence | self-splicing fitness (ln) (30 °C) | self-splicing fitness (ln) (37 °C)
CUGAAGCAAUAUUACGCAUU | -2.24 ± 0.12 | -2.45 ± 0.17
CUGAAGCAAUAUUACGCUAU | -3.68 ± 0.16 | -2.04 ± 0.14
CUGAAGCAAUAUUACGCUCA | -3.73 ± 0.37 | -0.356 ± 0.22
CUGAAGCAAUAUUACGCUGG | -3.37 ± 0.33 | -2.3 ± 0.34
CUGAAGCAAUAUUACGGACU | -2.85 ± 0.22 | -0.495 ± 0.17
CUGAAGCAAUAUUACGGAGG | -3.67 ± 0.21 | -1.81 ± 0.24
CUGAAGCAAUAUUACGGCAA | -3.04 ± 0.2 | -1.21 ± 0.2
CUGAAGCAAUAUUACGGCAG | -0.522 ± 0.11 | -0.657 ± 0.14
CUGAAGCAAUAUUACGGCGG | -0.674 ± 0.073 | -0.503 ± 0.1
CUGAAGCAAUAUUACGGGAA | -2.05 ± 0.18 | 
CUGAAGCAAUAUUACGGGAG | -0.441 ± 0.067 | -0.168 ± 0.078
CUGAAGCAAUAUUACGGUAU | -3.66 ± 0.26 | -2.54 ± 0.28
CUGAAGCAAUAUUACGGUCA | -1.38 ± 0.096 | -0.796 ± 0.13
CUGAAGCAAUAUUACGGUGC | -2.89 ± 0.25 | 
CUGAAGCAAUAUUACGGUGG | -1.02 ± 0.065 | -0.466 ± 0.094
CUGAAGCAAUAUUACGUAUC | -3.82 ± 0.23 | -1.78 ± 0.23
CUGAAGCAAUAUUACGUCUC |  | -1.47 ± 0.18
CUGAAGCAAUAUUACGUGAA | -2.91 ± 0.23 | -1.93 ± 0.26
CUGCAGCAAUAUUACGAAGU | -4.26 ± 0.34 | 
CUGCAGCAAUAUUACGAAUU | -3.62 ± 0.22 | -3.18 ± 0.43
